The source of these data is US20250163186A1 (PHYLAXIS BIOSCIENCE, published 2025).

This assay deals with T1, human IgE (human, UniProt P01854 1-428).
T1 construct: written under the same molecule; also called IgE (Abcam ab65866); soluble IgE
The assay can be described thus: ELISA, clone lysate on IgE-coated plate. The source says:
Each amino acid in CDR1 (SEQ ID NO:3), CDR2 (SEQ ID NO:68), and CDR3 (SEQ ID NO:74) was randomly replaced such that the 20 natural amino acids would likely all have been sampled at every position. The expression vector for the VHH containing the mutagenized CDRs was then transfected into E. coli, and at least 96 clones were randomly chosen for each position mutated in each CDR. This gives likely coverage of all potential mutations at each position since the probability to get any given amino acid at that position is 5%. […] The heat maps represent the relative binding for each clone determined by the range of OD values from the ELISA background to WT CDR binding (FIGS. 16A-16C). Site numbering for each residue tested is indicated by the inset tables in FIGS. 16A-16C.
In general terms: ELISA stands for enzyme-linked immunosorbent assay.

T1 sequence (P01854 other isoform, or with tags, fused parts or gaps limits assumed, form in doubt): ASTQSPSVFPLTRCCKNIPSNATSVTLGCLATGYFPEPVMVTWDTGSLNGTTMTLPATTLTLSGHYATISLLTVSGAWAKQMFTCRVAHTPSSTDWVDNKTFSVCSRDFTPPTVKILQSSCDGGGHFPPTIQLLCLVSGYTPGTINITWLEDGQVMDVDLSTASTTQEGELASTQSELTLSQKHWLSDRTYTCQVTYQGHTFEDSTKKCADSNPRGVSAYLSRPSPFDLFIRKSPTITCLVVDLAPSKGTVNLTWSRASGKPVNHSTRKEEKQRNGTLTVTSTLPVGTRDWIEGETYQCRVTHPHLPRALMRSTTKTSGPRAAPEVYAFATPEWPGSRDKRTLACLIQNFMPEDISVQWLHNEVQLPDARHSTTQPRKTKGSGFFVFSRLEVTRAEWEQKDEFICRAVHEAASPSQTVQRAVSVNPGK

B1: 2-1F11 (VHH)
VHH: EVQLLESGGGEVQPGGSLRLSCVASGITFSSYNMGWLRQAPGKEREFVGLSGSSSTSTYYAESVKGRFTISRDNAKNTVYLQMTSLRAEDTAVYYCAARRLLSTYWSDRSWDFWGQGTLVTVEP
notes: also called hzB10v40 VHH, CDR1 site 2 L to I
B1: the “Confirm OD450 Duplicate1” value was 0.647, the “Confirm OD450 Duplicate2” value was found to be 0.601 and the “R1 Screening OD450” value was 0.754.

B2: 4-2E2 (VHH)
VHH: EVQLLESGGGEVQPGGSLRLSCVASGLTGSSYNMGWLRQAPGKEREFVGLSGSSSTSTYYAESVKGRFTISRDNAKNTVYLQMTSLRAEDTAVYYCAARRLLSTYWSDRSWDFWGQGTLVTVEP
notes: also called hzB10v40 VHH, CDR1 site 4 F to G
Consider B2, for which the “Confirm OD450 Duplicate1” value amounted to 0.579, the “Confirm OD450 Duplicate2” value was 0.586 and the “R1 Screening OD450” value was 1.05.

B3: 6G9 (VHH)
VHH: EVQLLESGGGEVQPGGSLRLSCVASGLTFSAYNMGWLRQAPGKEREFVGLSGSSSTSTYYAESVKGRFTISRDNAKNTVYLQMTSLRAEDTAVYYCAARRLLSTYWSDRSWDFWGQGTLVTVEP
notes: also called hzB10v40 VHH, CDR1 site 6 S to A
For the molecule B3, the “Confirm OD450 Duplicate1” value was found to be 0.556, the “Confirm OD450 Duplicate2” value stood at 0.512 and the “R1 Screening OD450” value is 0.875.

B4: 6C2 (VHH)
VHH: EVQLLESGGGEVQPGGSLRLSCVASGLTFSQYNMGWLRQAPGKEREFVGLSGSSSTSTYYAESVKGRFTISRDNAKNTVYLQMTSLRAEDTAVYYCAARRLLSTYWSDRSWDFWGQGTLVTVEP
notes: also called hzB10v40 VHH, CDR1 site 6 S to Q
For B4, the “Confirm OD450 Duplicate1” value was 0.534, the “Confirm OD450 Duplicate2” value was 0.526 and the “R1 Screening OD450” value was found to be 0.826.

B5: 8F11 (VHH)
VHH: EVQLLESGGGEVQPGGSLRLSCVASGLTFSSYTMGWLRQAPGKEREFVGLSGSSSTSTYYAESVKGRFTISRDNAKNTVYLQMTSLRAEDTAVYYCAARRLLSTYWSDRSWDFWGQGTLVTVEP
notes: also called hzB10v40 VHH, CDR1 site 8 N to T
As to B5, the “Confirm OD450 Duplicate1” value is 0.52, the “Confirm OD450 Duplicate2” value is 0.559 and the “R1 Screening OD450” value stood at 0.922.

B6: 4-1F11 (VHH)
VHH: EVQLLESGGGEVQPGGSLRLSCVASGLTPSSYNMGWLRQAPGKEREFVGLSGSSSTSTYYAESVKGRFTISRDNAKNTVYLQMTSLRAEDTAVYYCAARRLLSTYWSDRSWDFWGQGTLVTVEP
notes: also called hzB10v40 VHH, CDR1 site 4 F to P
With B6, the “Confirm OD450 Duplicate1” value turned out to be 0.582, the “Confirm OD450 Duplicate2” value came to 0.483 and the “R1 Screening OD450” value came to 0.798.

B7: 5H11 (VHH)
VHH: EVQLLESGGGEVQPGGSLRLSCVASGLTFRSYNMGWLRQAPGKEREFVGLSGSSSTSTYYAESVKGRFTISRDNAKNTVYLQMTSLRAEDTAVYYCAARRLLSTYWSDRSWDFWGQGTLVTVEP
notes: also called hzB10v40 VHH, CDR1 site 5 S to R
Consider B7, for which the “Confirm OD450 Duplicate1” value is 0.545, the “Confirm OD450 Duplicate2” value worked out at 0.55 and the “R1 Screening OD450” value worked out at 0.893.

B8: 5A10 (VHH)
VHH: EVQLLESGGGEVQPGGSLRLSCVASGLTFASYNMGWLRQAPGKEREFVGLSGSSSTSTYYAESVKGRFTISRDNAKNTVYLQMTSLRAEDTAVYYCAARRLLSTYWSDRSWDFWGQGTLVTVEP
notes: also called hzB10v40 VHH, CDR1 site 5 S to A
Take B8: the “Confirm OD450 Duplicate1” value is 0.554, the “Confirm OD450 Duplicate2” value came out at 0.549 and the “R1 Screening OD450” value came to 0.96.

B9: 5A1 (VHH)
VHH: EVQLLESGGGEVQPGGSLRLSCVASGLTFKSYNMGWLRQAPGKEREFVGLSGSSSTSTYYAESVKGRFTISRDNAKNTVYLQMTSLRAEDTAVYYCAARRLLSTYWSDRSWDFWGQGTLVTVEP
notes: also called hzB10v40 VHH, CDR1 site 5 S to K
B9: the “Confirm OD450 Duplicate1” value was determined as 0.609, the “Confirm OD450 Duplicate2” value was 0.573 and the “R1 Screening OD450” value is 0.914.

B10: 3-1B9 (VHH)
VHH: EVQLLESGGGEVQPGGSLRLSCVASGLNFSSYNMGWLRQAPGKEREFVGLSGSSSTSTYYAESVKGRFTISRDNAKNTVYLQMTSLRAEDTAVYYCAARRLLSTYWSDRSWDFWGQGTLVTVEP
notes: also called hzB10v40 VHH, CDR1 site 3 T to N
Regarding B10, the “Confirm OD450 Duplicate1” value was 0.585, the “Confirm OD450 Duplicate2” value came to 0.634 and the “R1 Screening OD450” value stood at 0.945.

B11: 2-2C3 (VHH)
VHH: EVQLLESGGGEVQPGGSLRLSCVASGVTFSSYNMGWLRQAPGKEREFVGLSGSSSTSTYYAESVKGRFTISRDNAKNTVYLQMTSLRAEDTAVYYCAARRLLSTYWSDRSWDFWGQGTLVTVEP
notes: also called hzB10v40 VHH, CDR1 site 2 L to V
Take B11: the “Confirm OD450 Duplicate1” value worked out at 0.621, the “Confirm OD450 Duplicate2” value was 0.62 and the “R1 Screening OD450” value is 0.914.

B12: 4-1F10 (VHH)
VHH: EVQLLESGGGEVQPGGSLRLSCVASGLTYSSYNMGWLRQAPGKEREFVGLSGSSSTSTYYAESVKGRFTISRDNAKNTVYLQMTSLRAEDTAVYYCAARRLLSTYWSDRSWDFWGQGTLVTVEP
notes: also called hzB10v40 VHH, CDR1 site 4 F to Y
On to B12, for which the “Confirm OD450 Duplicate1” value turned out to be 0.697, the “Confirm OD450 Duplicate2” value is 0.545 and the “R1 Screening OD450” value was determined as 0.709.

B13: 5C3 (VHH)
VHH: EVQLLESGGGEVQPGGSLRLSCVASGLTFDSYNMGWLRQAPGKEREFVGLSGSSSTSTYYAESVKGRFTISRDNAKNTVYLQMTSLRAEDTAVYYCAARRLLSTYWSDRSWDFWGQGTLVTVEP
notes: also called hzB10v40 VHH, CDR1 site 5 S to D
As for B13, the “Confirm OD450 Duplicate1” value worked out at 0.546, the “Confirm OD450 Duplicate2” value was 0.556 and the “R1 Screening OD450” value was 0.897.

B14: 3-1A1 (VHH)
VHH: EVQLLESGGGEVQPGGSLRLSCVASGLVFSSYNMGWLRQAPGKEREFVGLSGSSSTSTYYAESVKGRFTISRDNAKNTVYLQMTSLRAEDTAVYYCAARRLLSTYWSDRSWDFWGQGTLVTVEP
notes: also called hzB10v40 VHH, CDR1 site 3 T to V
As for B14, the “Confirm OD450 Duplicate1” value is 0.607, the “Confirm OD450 Duplicate2” value was 0.572 and the “R1 Screening OD450” value turned out to be 0.896.

B15: 8H11 (VHH)
VHH: EVQLLESGGGEVQPGGSLRLSCVASGLTFSSYRMGWLRQAPGKEREFVGLSGSSSTSTYYAESVKGRFTISRDNAKNTVYLQMTSLRAEDTAVYYCAARRLLSTYWSDRSWDFWGQGTLVTVEP
notes: also called hzB10v40 VHH, CDR1 site 8 N to R
In the case of B15, the “Confirm OD450 Duplicate1” value amounted to 0.571, the “Confirm OD450 Duplicate2” value came to 0.568 and the “R1 Screening OD450” value was 0.97.

B16: 9B1 (VHH)
VHH: EVQLLESGGGEVQPGGSLRLSCVASGLTFSSYNVGWLRQAPGKEREFVGLSGSSSTSTYYAESVKGRFTISRDNAKNTVYLQMTSLRAEDTAVYYCAARRLLSTYWSDRSWDFWGQGTLVTVEP
notes: also called hzB10v40 VHH, CDR1 site 9 M to V
With B16, the “Confirm OD450 Duplicate1” value amounted to 0.452, the “Confirm OD450 Duplicate2” value was found to be 0.454 and the “R1 Screening OD450” value was found to be 0.879.

B17: 3-1H1 (VHH)
VHH: EVQLLESGGGEVQPGGSLRLSCVASGLIFSSYNMGWLRQAPGKEREFVGLSGSSSTSTYYAESVKGRFTISRDNAKNTVYLQMTSLRAEDTAVYYCAARRLLSTYWSDRSWDFWGQGTLVTVEP
notes: also called hzB10v40 VHH, CDR1 site 3 T to I
B17: the “Confirm OD450 Duplicate1” value stood at 0.567, the “Confirm OD450 Duplicate2” value worked out at 0.559 and the “R1 Screening OD450” value worked out at 0.857.

B18: 6A9 (VHH)
VHH: EVQLLESGGGEVQPGGSLRLSCVASGLTFSEYNMGWLRQAPGKEREFVGLSGSSSTSTYYAESVKGRFTISRDNAKNTVYLQMTSLRAEDTAVYYCAARRLLSTYWSDRSWDFWGQGTLVTVEP
notes: also called hzB10v40 VHH, CDR1 site 6 S to E
For the molecule B18, the “Confirm OD450 Duplicate1” value came out at 0.475, the “Confirm OD450 Duplicate2” value was 0.488 and the “R1 Screening OD450” value was found to be 0.852.

B19: 6H1 (VHH)
VHH: EVQLLESGGGEVQPGGSLRLSCVASGLTFSPYNMGWLRQAPGKEREFVGLSGSSSTSTYYAESVKGRFTISRDNAKNTVYLQMTSLRAEDTAVYYCAARRLLSTYWSDRSWDFWGQGTLVTVEP
notes: also called hzB10v40 VHH, CDR1 site 6 S to P
On to B19, for which the “Confirm OD450 Duplicate1” value was 0.487, the “Confirm OD450 Duplicate2” value turned out to be 0.53 and the “R1 Screening OD450” value was 0.908.

B20: 6E11 (VHH)
VHH: EVQLLESGGGEVQPGGSLRLSCVASGLTFSTYNMGWLRQAPGKEREFVGLSGSSSTSTYYAESVKGRFTISRDNAKNTVYLQMTSLRAEDTAVYYCAARRLLSTYWSDRSWDFWGQGTLVTVEP
notes: also called hzB10v40 VHH, CDR1 site 6 S to T
For the molecule B20, the “Confirm OD450 Duplicate1” value amounted to 0.454, the “Confirm OD450 Duplicate2” value was 0.468 and the “R1 Screening OD450” value was 0.817.

B21: 6F11 (VHH)
VHH: EVQLLESGGGEVQPGGSLRLSCVASGLTFSRYNMGWLRQAPGKEREFVGLSGSSSTSTYYAESVKGRFTISRDNAKNTVYLQMTSLRAEDTAVYYCAARRLLSTYWSDRSWDFWGQGTLVTVEP
notes: also called hzB10v40 VHH, CDR1 site 6 S to R
Turning to B21, the “Confirm OD450 Duplicate1” value amounted to 0.417, the “Confirm OD450 Duplicate2” value came to 0.402 and the “R1 Screening OD450” value was determined as 0.885.

B22: 8G10 (VHH)
VHH: EVQLLESGGGEVQPGGSLRLSCVASGLTFSSYSMGWLRQAPGKEREFVGLSGSSSTSTYYAESVKGRFTISRDNAKNTVYLQMTSLRAEDTAVYYCAARRLLSTYWSDRSWDFWGQGTLVTVEP
notes: also called hzB10v40 VHH, CDR1 site 8 N to S
Turning to B22, the “Confirm OD450 Duplicate1” value came to 0.534, the “Confirm OD450 Duplicate2” value is 0.552 and the “R1 Screening OD450” value worked out at 0.917.

B23: 3-1B10 (VHH)
VHH: EVQLLESGGGEVQPGGSLRLSCVASGLKFSSYNMGWLRQAPGKEREFVGLSGSSSTSTYYAESVKGRFTISRDNAKNTVYLQMTSLRAEDTAVYYCAARRLLSTYWSDRSWDFWGQGTLVTVEP
notes: also called hzB10v40 VHH, CDR1 site 3 T to K
On to B23, for which the “Confirm OD450 Duplicate1” value was 0.57, the “Confirm OD450 Duplicate2” value was determined as 0.594 and the “R1 Screening OD450” value came to 0.904.
